According to patent CN116284427A (SUNSHINE GUOJIAN PHARMACEUTICAL SHANGHAI CO LTD, dated 2023):
Where “and” joins values, the source holds several entries; their conditions need not be identical. Equal values may be shown once.

How the values were obtained:
[1] = target: T1, Human CD3 epsilon&CD3 delta Heterodimer Protein (human, UniProt P07766 23-126; P04234 22-105); test: ELISA, CD3 epsilon/delta heterodimer coated at 50 ng/mL, HRP goat anti-human Fc
T1 construct: Bought heterodimer; also called Human CD3 epsilon&CD3 delta Heterodimer蛋白; CD3抗原
T1 sequence (P07766 23-126, stated change not applied, chain 1 of 2): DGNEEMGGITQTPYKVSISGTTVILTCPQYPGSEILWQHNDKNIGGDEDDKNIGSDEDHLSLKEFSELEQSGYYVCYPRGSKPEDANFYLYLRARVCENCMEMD
T1 sequence (P04234 22-105, stated change not applied, chain 2 of 2): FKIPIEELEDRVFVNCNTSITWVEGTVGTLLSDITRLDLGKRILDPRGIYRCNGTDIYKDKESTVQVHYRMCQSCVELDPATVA

MUC17 on LS174T cells [2] = target: T2, MUC17 on LS174T cells (human, UniProt Q685J3 26-4493); test: flow cytometry on LS174T cells, PE goat anti-human Fc
[3] = target: CD3 (CD3-TCR complex) on Promega PD1 effector cells (Jurkat T cells) (human); test: cell-based or functional assay
MUC17 on LS174T cells [4] = target: T2, MUC17 on LS174T cells; test: cell-based or functional assay
MUC17-ECD-His蛋白 = target: T3, MUC17-ECD-His蛋白 (human, UniProt Q685J3 26-4393); test: ELISA, MUC17-ECD-His coated at 500 ng/mL, HRP goat anti-human Fc
T3 construct: extracellular domain; Made in HEK-293E; the signal peptide added at the N-terminus is not part of the purified protein; also called MUC17抗原

Row | Binder | binding result [1] | binding result (MUC17 on LS174T cells [2]) | EC 50 [3] | Top [3] | IC 50 (CD3+T细胞杀伤LS174T细胞, CellTiter-Glo) (MUC17 on LS174T cells [4]) [nM] | EC 50 (MUC17-ECD-His蛋白) [nM]
1 | anti-MUC17×CD3 BsAb CM5 (bispecific antibody, human IgG1, kappa) heavy: not shown light: QAVVTQEPSLTVSPGGTVTLTCRSSTGAVTTSNYANWVQQKPGQAPRGLIGGTNKRAPGVPARFSGSLLGGKAALTLSGAQPEDEAEYYCALWYSNLWVFGQGTKVEIKRTVAAPSVFIFPPSDEQLKSGTASVVCLLNNFYPREAKVQWKVDNALQSGNSQESVTEQDSKDSTYSLSSTLTLSKADYEKHKVYACEVTHQGLSSPVTKSFNRGEC | binds | binds | 0.646 nM | 42300 | – | –
2 | anti-MUC17×CD3 BsAb CM6 (bispecific antibody, human IgG1, kappa) heavy: not shown light: QAVVTQEPSLTVSPGGTVTLTCRSSTGAVTTSNYANWVQQKPGQAPRGLIGGTNKRAPGVPARFSGSLLGGKAALTLSGAQPEDEAEYYCALWYSNLWVFGQGTKVEIKRTVAAPSVFIFPPSDEQLKSGTASVVCLLNNFYPREAKVQWKVDNALQSGNSQESVTEQDSKDSTYSLSSTLTLSKADYEKHKVYACEVTHQGLSSPVTKSFNRGEC | binds | binds | 1.11 nM | 45800 | – | –
3 | anti-MUC17×CD3 BsAb CM7 (bispecific antibody, human IgG1, kappa) heavy: not shown light: QAVVTQEPSLTVSPGGTVTLTCRSSTGAVTTSNYANWVQQKPGQAPRGLIGGTNKRAPGVPARFSGSLLGGKAALTLSGAQPEDEAEYYCALWYSNLWVFGQGTKVEIKRTVAAPSVFIFPPSDEQLKSGTASVVCLLNNFYPREAKVQWKVDNALQSGNSQESVTEQDSKDSTYSLSSTLTLSKADYEKHKVYACEVTHQGLSSPVTKSFNRGEC | binds | – | 1.41 nM | 80500 | 0.28 | –
4 | anti-MUC17×CD3 BsAb CM8 (bispecific antibody, human IgG1, kappa) heavy: not shown light: QAVVTQEPSLTVSPGGTVTLTCRSSTGAVTTSNYANWVQQKPGQAPRGLIGGTNKRAPGVPARFSGSLLGGKAALTLSGAQPEDEAEYYCALWYSNLWVFGQGTKVEIKRTVAAPSVFIFPPSDEQLKSGTASVVCLLNNFYPREAKVQWKVDNALQSGNSQESVTEQDSKDSTYSLSSTLTLSKADYEKHKVYACEVTHQGLSSPVTKSFNRGEC | binds | binds | 1.17 nM | 76700 | – | –
5 | 27A3人源化抗体(hu-27A3) (antibody, human IgG1, kappa, V domains shown, Humanized anti-MUC17 IgG1/kappa, made in HEK-293E; also called 抗MUC17的人源化单克隆抗体) VH: QVQLVQSGAEVKKPGASVKVSCKASGYSFTIYWMHWVRQAPGQGLEWIGMSHPSDSESRLNQKFKDRATLTVDKSTSTAYMELSSLRSEDTAVYYCSRPYYGSSAWFADWGQGTLVTVSA VL: DIVMTQSPDSLAVSLGERATINCKSSQSLLNSSNQKNYLAWYQQKPGQSPKLLIYFASTRESGVPDRFSGSGSGTDFTLTISSLQAEDVAVYYCQQHYSFPLTFGAGTKLELRR | – | – | – | – | – | 0.0893
6 | 人源化抗CD3抗体huSP34 (antibody, human IgG1, kappa, V domains shown, Humanized SP34, IgG1/kappa; positive control for the CD3 arm) VH: EVQLVESGGGLVQPGGSLRLSCAASGFTFNTYAMNWVRQAPGKGLEWVARIRSKYNNYATYYADSVKDRFTISRDDSKNTLYLQMNSLRAEDTAVYYCVRHGNFGNSYVSWFAYWGQGTLVTVSS VL: QAVVTQEPSLTVSPGGTVTLTCRSSTGAVTTSNYANWVQQKPGQAPRGLIGGTNKRAPGVPARFSGSLLGGKAALTLSGAQPEDEAEYYCALWYSNLWVFGQGTKVEIKR | binds | – | 0.73 nM and 0.624 nM | – | – | –
